From patent US20230183354A1 (IMMIOS HOLDING B V, published 2023)

How the values were obtained:
[1] = target: T1, human CD103 (integrin Alpha-E) / human integrin Beta-7 heterodimer on cells (human, UniProt P38570 19-1179; P26010 20-798); assay: cell ELISA on CHO.K1-humanCD103/beta7 cells, abs 450-610
T1 construct: The same id is used for native CD103 on human CD103+CD8+ T cells (tumor digests, TGF-beta induced T cells); the assay field tells which cells; also called hCD103/hBeta7; CHO.K1-hCD103/hBeta7

[2] = target: T2, human integrin Alpha-4 / human integrin Beta-7 heterodimer on CHO-K1 cells (human, UniProt P13612 34-1032; P26010 20-798); assay: cell ELISA on CHO.K1-humanAlpha4/beta7 cells, abs 450-610
T2 construct: Used as the control for reactivity with hBeta7; also called hAlpha4/hBeta7; CHO.K1-hAlpha4/hBeta7

[3] = target: T1, human CD103 (integrin Alpha-E) / human …; assay: flow cytometry competition on CD103+CD8+ T cells; pre-incubation with unlabeled 01A; table n=1
Procedure: (§1) Percentage binding of fluorescently labeled mAbs was determined using flow cytometry. Maximum binding was set at 100%.
(§2) Percentage binding of fluorescently labeled mAbs was determined using flow cytometry. Maximum binding was set at 100%

[4] = target: T1, human CD103 (integrin Alpha-E) / human …; assay: flow cytometry competition on CD103+CD8+ T cells; pre-incubation with unlabeled 02A; table n=2
Procedure: as §1, §2

[5] = target: T1, human CD103 (integrin Alpha-E) / human …; assay: flow cytometry competition on CD103+CD8+ T cells; pre-incubation with unlabeled 03A; table n=1
Procedure: as §1, §2

[6] = target: T1, human CD103 (integrin Alpha-E) / human …; assay: flow cytometry competition on CD103+CD8+ T cells; pre-incubation with unlabeled 03A; table n=2
Procedure: as §1, §2

[7] = target: T1, human CD103 (integrin Alpha-E) / human …; assay: flow cytometry competition on CD103+CD8+ T cells; pre-incubation with unlabeled 05A; table n=1
Procedure: as §1, §2

[8] = target: T1, human CD103 (integrin Alpha-E) / human …; assay: flow cytometry competition on CD103+CD8+ T cells; pre-incubation with unlabeled 05A; table n=2
Procedure: as §1, §2

[9] = target: T1, human CD103 (integrin Alpha-E) / human …; assay: flow cytometry competition on CD103+CD8+ T cells; pre-incubation with unlabeled 06A; table n=1
Procedure: as §1, §2

[10] = target: T1, human CD103 (integrin Alpha-E) / human …; assay: flow cytometry competition on CD103+CD8+ T cells; pre-incubation with unlabeled 06A; table n=2
Procedure: as §1, §2

[11] = target: T1, human CD103 (integrin Alpha-E) / human …; assay: flow cytometry competition on CD103+CD8+ T cells; pre-incubation with unlabeled 07A; table n=1
Procedure: as §2

[12] = target: T1, human CD103 (integrin Alpha-E) / human …; assay: flow cytometry competition on CD103+CD8+ T cells; pre-incubation with unlabeled 07A; table n=2
Procedure: as §1, §2

[13] = target: T1, human CD103 (integrin Alpha-E) / human …; assay: flow cytometry competition on CD103+CD8+ T cells; pre-incubation with unlabeled IgG (f2); table n=1
Procedure: as §2

[14] = target: T1, human CD103 (integrin Alpha-E) / human …; assay: flow cytometry competition on CD103+CD8+ T cells; pre-incubation with unlabeled MCA708 (f4); table n=1
Procedure: as §1, §2

[15] = target: T1, human CD103 (integrin Alpha-E) / human …; assay: flow cytometry competition on CD103+CD8+ T cells; pre-incubation with unlabeled MCA708 (f4); table n=2
Procedure: as §1, §2

[16] = target: T1, human CD103 (integrin Alpha-E) / human …; assay: flow cytometry competition on CD103+CD8+ T cells; pre-incubation with unlabeled BERACT; table n=1
Procedure: as §1, §2

T2 sequence (P13612 34-1032 limits assumed, chain 1 of 2): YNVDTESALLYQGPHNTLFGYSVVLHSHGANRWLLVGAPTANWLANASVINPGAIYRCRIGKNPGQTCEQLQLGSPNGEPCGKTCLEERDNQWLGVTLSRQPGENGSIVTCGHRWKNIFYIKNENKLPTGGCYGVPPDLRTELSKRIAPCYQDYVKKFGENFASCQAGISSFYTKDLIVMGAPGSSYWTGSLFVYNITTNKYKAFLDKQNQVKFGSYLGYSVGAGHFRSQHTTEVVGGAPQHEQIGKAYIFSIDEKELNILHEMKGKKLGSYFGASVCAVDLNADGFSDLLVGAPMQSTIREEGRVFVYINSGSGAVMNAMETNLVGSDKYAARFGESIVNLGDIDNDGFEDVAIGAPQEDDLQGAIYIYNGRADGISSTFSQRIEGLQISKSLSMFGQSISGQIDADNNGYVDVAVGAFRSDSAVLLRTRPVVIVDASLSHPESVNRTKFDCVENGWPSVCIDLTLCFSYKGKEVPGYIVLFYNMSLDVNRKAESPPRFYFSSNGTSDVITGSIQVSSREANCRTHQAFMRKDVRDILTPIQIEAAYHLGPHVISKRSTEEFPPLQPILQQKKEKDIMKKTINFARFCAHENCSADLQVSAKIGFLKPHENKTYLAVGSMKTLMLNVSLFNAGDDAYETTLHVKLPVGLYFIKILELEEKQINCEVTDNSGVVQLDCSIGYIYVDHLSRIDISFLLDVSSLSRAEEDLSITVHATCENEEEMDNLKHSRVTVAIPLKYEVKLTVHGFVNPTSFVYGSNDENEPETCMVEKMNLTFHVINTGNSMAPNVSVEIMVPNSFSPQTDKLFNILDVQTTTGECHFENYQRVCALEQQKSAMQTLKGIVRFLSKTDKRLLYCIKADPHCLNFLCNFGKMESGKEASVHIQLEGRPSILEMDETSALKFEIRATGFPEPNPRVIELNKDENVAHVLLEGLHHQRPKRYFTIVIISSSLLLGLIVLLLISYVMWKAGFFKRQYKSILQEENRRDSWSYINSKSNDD
T2 sequence (P26010 20-798 limits assumed, chain 2 of 2): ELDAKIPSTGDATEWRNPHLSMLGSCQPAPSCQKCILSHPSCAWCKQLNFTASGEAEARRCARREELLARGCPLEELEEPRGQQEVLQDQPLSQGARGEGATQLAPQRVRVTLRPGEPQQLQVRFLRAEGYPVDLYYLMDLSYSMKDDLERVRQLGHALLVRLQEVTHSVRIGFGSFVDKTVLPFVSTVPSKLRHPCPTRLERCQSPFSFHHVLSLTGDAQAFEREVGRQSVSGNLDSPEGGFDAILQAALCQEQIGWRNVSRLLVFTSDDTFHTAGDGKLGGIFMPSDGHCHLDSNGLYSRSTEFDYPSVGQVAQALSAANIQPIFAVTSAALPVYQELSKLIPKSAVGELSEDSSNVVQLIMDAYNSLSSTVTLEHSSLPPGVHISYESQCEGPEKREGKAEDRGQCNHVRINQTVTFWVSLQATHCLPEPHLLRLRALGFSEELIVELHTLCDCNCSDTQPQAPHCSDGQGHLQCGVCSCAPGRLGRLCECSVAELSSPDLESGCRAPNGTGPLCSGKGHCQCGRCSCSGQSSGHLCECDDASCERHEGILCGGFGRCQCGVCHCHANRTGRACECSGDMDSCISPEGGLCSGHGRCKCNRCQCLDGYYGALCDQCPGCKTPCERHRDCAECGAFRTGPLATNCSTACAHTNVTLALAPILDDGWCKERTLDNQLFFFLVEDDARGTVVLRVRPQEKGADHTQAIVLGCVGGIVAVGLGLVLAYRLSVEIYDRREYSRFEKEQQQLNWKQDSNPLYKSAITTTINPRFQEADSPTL
T1 sequence (P38570 19-1179 limits assumed, chain 1 of 2): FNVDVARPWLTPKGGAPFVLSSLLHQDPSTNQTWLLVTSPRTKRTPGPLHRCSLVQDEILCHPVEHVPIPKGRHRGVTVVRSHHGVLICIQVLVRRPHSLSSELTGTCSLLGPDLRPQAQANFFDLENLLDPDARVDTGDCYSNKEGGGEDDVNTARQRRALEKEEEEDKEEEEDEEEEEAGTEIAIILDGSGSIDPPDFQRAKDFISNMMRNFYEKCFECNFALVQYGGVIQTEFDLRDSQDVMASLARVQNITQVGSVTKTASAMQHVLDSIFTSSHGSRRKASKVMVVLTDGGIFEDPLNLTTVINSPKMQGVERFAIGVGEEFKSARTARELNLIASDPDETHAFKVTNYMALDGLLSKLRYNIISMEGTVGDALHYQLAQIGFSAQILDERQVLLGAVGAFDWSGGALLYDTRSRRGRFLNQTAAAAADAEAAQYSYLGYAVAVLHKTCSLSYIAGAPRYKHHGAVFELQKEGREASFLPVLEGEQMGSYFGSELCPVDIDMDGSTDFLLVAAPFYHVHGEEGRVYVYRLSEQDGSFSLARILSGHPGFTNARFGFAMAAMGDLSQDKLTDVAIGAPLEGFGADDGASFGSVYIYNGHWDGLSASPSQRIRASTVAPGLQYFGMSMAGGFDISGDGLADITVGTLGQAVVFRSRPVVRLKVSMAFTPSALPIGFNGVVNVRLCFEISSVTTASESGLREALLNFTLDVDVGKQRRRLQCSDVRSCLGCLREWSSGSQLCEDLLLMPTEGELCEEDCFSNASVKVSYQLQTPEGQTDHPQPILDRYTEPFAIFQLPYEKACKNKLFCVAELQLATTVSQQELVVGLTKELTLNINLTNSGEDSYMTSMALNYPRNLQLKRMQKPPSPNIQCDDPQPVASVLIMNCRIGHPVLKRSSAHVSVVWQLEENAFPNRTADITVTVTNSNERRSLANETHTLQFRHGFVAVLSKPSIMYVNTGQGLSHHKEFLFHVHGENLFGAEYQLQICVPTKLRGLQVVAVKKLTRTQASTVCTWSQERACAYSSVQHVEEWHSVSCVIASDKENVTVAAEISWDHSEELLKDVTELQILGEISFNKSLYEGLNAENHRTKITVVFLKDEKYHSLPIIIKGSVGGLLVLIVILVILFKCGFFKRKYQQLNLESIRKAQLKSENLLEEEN
T1 sequence (P26010 20-798 limits assumed, chain 2 of 2): as the sequence (P26010 20-798 limits assumed, chain 2 of 2) above

Binder | EC50 (read off the curve) [1] [µg/mL] | binding result [2] | % binding of the fluorescently labeled mAb (IgG pre-incubation = 100) [3] [%] | % binding of the fluorescently labeled mAb (IgG pre-incubation = 100) [4] [%] | % binding of the fluorescently labeled mAb (IgG pre-incubation = 100) [5] [%] | % binding of the fluorescently labeled mAb (IgG pre-incubation = 100) [6] [%] | % binding of the fluorescently labeled mAb (IgG pre-incubation = 100) [7] [%] | % binding of the fluorescently labeled mAb (IgG pre-incubation = 100) [8] [%] | % binding of the fluorescently labeled mAb (IgG pre-incubation = 100) [9] [%] | % binding of the fluorescently labeled mAb (IgG pre-incubation = 100) [10] [%] | % binding of the fluorescently labeled mAb (IgG pre-incubation = 100) [11] [%] | % binding of the fluorescently labeled mAb (IgG pre-incubation = 100) [12] [%] | % binding of the fluorescently labeled mAb (IgG pre-incubation = 100) [13] [%] | % binding of the fluorescently labeled mAb (IgG pre-incubation = 100) [14] [%] | % binding of the fluorescently labeled mAb (IgG pre-incubation = 100) [15] [%] | % binding of the fluorescently labeled mAb (IgG pre-incubation = 100) [16] [%]
hCD103.01A (antibody, V domains shown, Also tested labelled with AF647, conjugated with Df and labelled with 89Zr; these are written under this molecule; also called clone 01A; hCD103.01 mAb) VH: EVQLQESGPSLVKPSQTLSLTCSVTGDSITSGYWNWIRKFPGNKLEYMGYITYSGSTYYNPSLKSRISITRDTSKNQYYLQLNSVTTEDTATYYCTRHYYGSDAMDYWGQGTSVTVSS VL: DIVMTQSHKFMSTSVGDRVSITCKASQDVSIAVAWYQQRPGQSPKLLIYSASYRYTGVPDRFTGSGSGTDFTFTISSVQAEDLAVYYCQQHYSTPWTFGGGTKLEIK | ~0.02 | no binding | 1.5 | 3 | 96.7 | 97.3 | 71.8 | 77.4 | 81.8 | 90.9 | 27.5 | 26.6 | 100 | 83.9 | 92.3 | 2.5
hCD103.06A (antibody, mouse IgG1, V domains shown, also called clone 06A; hCD103.06 mAb) VH: QVQLQQPGSELVRPGASVKLSCKASGYTFTSYWMHWVKQRHGQGLEWIGNIYPGSGSTNYDEKFKSKGTLTVDTSSSTAYMHLSSLTSEDSAVYYCTRGVYDNPYYFDYWGQGTTLTVSS VL: DIQMTQSSSNLSVSLGGRVTITCKASDHINNWLAWYQQKPGNAPRVLISGATSLETGVPSRFSGSGSGKDYTLSITSLQTEDVATYYCQQYWSIPLTFGAGTKLELK | ~0.04 | no binding | 96 | 103 | 101 | 108 | 101 | 102 | 18.7 | 18.9 | 93.2 | 97 | 100 | 0.7 | 1 | 84.9

The next lines start with the values.

EC50 (read off the curve) [1] [µg/mL] | binding result [2] | % binding of the fluorescently labeled mAb (IgG pre-incubation = 100) [3] [%] | % binding of the fluorescently labeled mAb (IgG pre-incubation = 100) [4] [%] | % binding of the fluorescently labeled mAb (IgG pre-incubation = 100) [5] [%] | % binding of the fluorescently labeled mAb (IgG pre-incubation = 100) [6] [%] | % binding of the fluorescently labeled mAb (IgG pre-incubation = 100) [7] [%] | % binding of the fluorescently labeled mAb (IgG pre-incubation = 100) [8] [%] | % binding of the fluorescently labeled mAb (IgG pre-incubation = 100) [9] [%] | % binding of the fluorescently labeled mAb (IgG pre-incubation = 100) [10] [%] | % binding of the fluorescently labeled mAb (IgG pre-incubation = 100) [11] [%] | % binding of the fluorescently labeled mAb (IgG pre-incubation = 100) [12] [%] | % binding of the fluorescently labeled mAb (IgG pre-incubation = 100) [13] [%] | % binding of the fluorescently labeled mAb (IgG pre-incubation = 100) [14] [%] | % binding of the fluorescently labeled mAb (IgG pre-incubation = 100) [15] [%] | % binding of the fluorescently labeled mAb (IgG pre-incubation = 100) [16] [%] | Binder
~0.01 | no binding | 0.7 | 0.9 | 94.4 | 77.8 | 7.9 | 11.4 | 73.2 | 81.6 | 33.7 | 29.8 | 100 | 92 | 92.5 | 0.7 | hCD103.07A (antibody, mouse IgG1, V domains shown, also called clone 07A) VH: EVQLQESGPSLVKPSQTLSLTCSVTGDSITSGYWNWIRKFPGNKLEYMGYITYSGSTYYNPSLKSRISITRDTSKNQYYLQLNSVTTEDTATYYCARNYYGSSSMDYWGQGTSVTVSS VL: DIVMTQSQKFMSTSVADRVSVTCKASQNVGSDVAWYQQKPGQSPKSLIYSASYRYSGVPDRFTGSGSGTDFTLTISNVQSEDLAEYFCQQYNSYPSTFGGGTKLEIK
 | no binding | 2.6 | 4.6 | 100 | 90.9 | 13.1 | 14.2 | 101 | 87.4 | 66.3 | 56.9 | 100 | 94.6 | 89.7 | 4.2 | hCD103.05A (antibody, mouse IgG1, V domains shown, Also tested labelled with AF647, conjugated with Df and labelled with 89Zr; these are written under this molecule; also called clone 05A; hCD103.05 mAb) VH: EVQLQQSGPELEKPGASAKISCKASGYSFTGYNMNWVKQSNGKSLEWIGNIDPYYGGTSYNQKFKGKATLTVDKSSSTAYMQLKSLTSEDSAVYYCARSFYGYDAGSPYNYAMDYWGQGTPVTVSP VL: DIVMTQSHKFMSTSVGDRVSITCKASQDVGTFVAWYQQKPGQSPKLLIYWASTRHTGVPDRFTGSGSGTDFTLTISNVQSEDLADYFCHQYSSYPYTFGGGTQLEIK
